US7026443
Read-outs that look alike come from different tables or passages of the source.

Key:
[1] = target: HLA-A*2402 (human); experiment: competition with 125I-labelled standard peptide for purified HLA-A*2402, gel filtration
[2] = target: HLA-A*2402 (human); experiment: competition with 125I-labelled standard probe peptide for purified HLA-A*2402, gel filtration
[3] = target: HLA-A*0201 (purified HLA class I molecule) (human)
[4] = target: HLA-A*1101 (human); experiment: inhibition of 125I-labeled standard peptide binding to purified HLA, gel filtration
[5] = target: HLA-A*0301 (human); experiment: as above
[6] = target: HLA-A*0301 (human); experiment: competition with 125I-labeled standard peptide for purified HLA-A*0301, gel filtration
[7] = target: HLA-A*0101 (human); experiment: competition with 125I-labelled standard peptide 944.02 ([..]) for purified HLA-A*0101, gel filtration; conditions: remark: other sources report otherwise
[8] = target: HLA-A*0301 (human); experiment: competitive inhibition of 125I-labelled standard peptide binding to purified HLA-A*0301, gel filtration; conditions: remark: other sources report otherwise
[9] = target: HLA-B*0702 (human); experiment: competition with 125I-labeled standard peptide for purified HLA, gel filtration
[10] = target: HLA-B*3501 (human); experiment: competition with 125I-labeled standard probe peptide for purified HLA, gel filtration; conditions: for relative binding ratio: scale: ratio
[11] = target: HLA-B*5301 (human); experiment: as above; conditions: for relative binding ratio: scale: ratio
[12] = target: HLA-B*5101 (human); experiment: as above; conditions: for relative binding ratio: scale: ratio
[13] = target: HLA-B*0702 (human); experiment: as above; conditions: for relative binding ratio: scale: ratio
[14] = target: HLA-B*5401 (human); experiment: as above; conditions: for relative binding ratio: scale: ratio
[15] = target: HLA-A*0101 (human); experiment: competition with 125I-labelled standard peptide for purified HLA-A*0101, gel filtration
[16] = target: HLA-A*1101 (human); experiment: competition with 125I-labelled standard peptide for purified HLA-A*1101, gel filtration
[17] = target: HLA-A*1101 (purified HLA class I molecule) (human); experiment: as above
[18] = target: HLA-A*1101 (purified HLA class I molecule) (human)
[19] = remark: other sources report otherwise

PYAVCDKCLKF (modifications not checked) [HPV16 E6 66 …]
relative binding ratio (IC50 of standard peptide / IC50 of test peptide) (ratio to standard peptide) [1]: 0.11
relative binding ratio (IC50 of standard peptide / IC50 of test peptide) [2]: 0.11

QYNKPLCDL (modifications not checked)
relative binding ratio (IC50 of standard peptide / IC50 of test peptide) (ratio to standard peptide) [1]: 0.0001
relative binding ratio (IC50 of standard peptide / IC50 of test peptide) [2]: 0.0001

QYNKPLCDLL (modifications not checked)
relative binding ratio (IC50 of standard peptide / IC50 of test peptide) (ratio to standard peptide) [1]: 0.0015
relative binding ratio (IC50 of standard peptide / IC50 of test peptide) [2]: 0.0015

ALDGNPISI (modifications not checked) [HPV45 E1 peptide … (position 532, 9 amino acids)]
relative binding ratio (IC50 of standard peptide / IC50 of test peptide) [3]: 0.021

ALYWYRTGI (modifications not checked) [HPV45 E1 peptide … (position 311, 9 amino acids)]
relative binding ratio (IC50 of standard peptide / IC50 of test peptide) [3]: 0.0032

AICIEKQSR (modifications not checked) [HPV16 E1 peptide … (position 112, 9 amino acids)]
binding affinity ratio (IC50 of standard peptide / IC50 of test peptide) [4]: 0.0057
binding affinity ratio (IC50 of standard peptide / IC50 of test peptide) [5]: 0.001
relative binding ratio (IC50 of standard peptide / IC50 of test peptide) (ratio to standard peptide) [6]: 0.001

GMVVLLLVR (modifications not checked) [HPV16 E1 peptide … (position 272, 9 amino acids)]
binding affinity ratio (IC50 of standard peptide / IC50 of test peptide) [4]: 0.0082
binding affinity ratio (IC50 of standard peptide / IC50 of test peptide) [5]: 0.0036

KAAMLAKFK (modifications not checked) [HPV16 E1 peptide … (position 204, 9 amino acids)]
binding affinity ratio (IC50 of standard peptide / IC50 of test peptide) [4]: 0.18
binding affinity ratio (IC50 of standard peptide / IC50 of test peptide) [5]: 0.11

LSLHEDEDK (modifications not checked) [HPV16 E1 peptide … (position 620, 9 amino acids)]
binding affinity ratio (IC50 of standard peptide / IC50 of test peptide) [4]: 0.0002
binding affinity ratio (IC50 of standard peptide / IC50 of test peptide) [5]: 0.0005

LTNILNVLK (modifications not checked) [HPV16 E1 peptide … (position 191, 9 amino acids)]
binding affinity ratio (IC50 of standard peptide / IC50 of test peptide) [4]: 0.42
binding affinity ratio (IC50 of standard peptide / IC50 of test peptide) [5]: 0.0086

IVYRDGNPY (modifications not checked) [HPV16 E6 59 …]
binding affinity ratio (IC50 of standard peptide / IC50 of test peptide) [7]: 0.0018
relative binding ratio (IC50 of standard peptide / IC50 of test peptide) [2, 19]: 0.0001

DLQPETTDLY (modifications not checked) [HPV16 E7 14 …]
binding affinity ratio (IC50 of standard peptide / IC50 of test peptide) [7]: 0.002
relative binding ratio (IC50 of standard peptide / IC50 of test peptide) (ratio to standard peptide) [8]: 0.0002

ETTDLYCY (modifications not checked) [HPV16 E7 18 ETTDLYCY]
binding affinity ratio (IC50 of standard peptide / IC50 of test peptide) [7]: 0.078
relative binding ratio (IC50 of standard peptide / IC50 of test peptide) (ratio to standard peptide) [8]: 0.0002
relative binding ratio (IC50 of standard peptide / IC50 of test peptide) [2, 19]: 0.0001

PPKLRSTAA (modifications not checked) [HPV16 E1 309 …]
binding affinity ratio (IC50 of standard peptide / IC50 of test peptide) [9]: 0.0014

LPQLCTEL (modifications not checked) [HPV16 E6 19 LPQLCTEL]
binding affinity ratio (IC50 of standard peptide / IC50 of test peptide) [9]: 0.0055

NPYAVCDKCL (modifications not checked) [HPV16 E6 65 …]
relative binding ratio [10]: 0.0001
relative binding ratio [11]: 0.0001
relative binding ratio [12]: 0.0001
relative binding ratio [13]: 0.0001
relative binding ratio [14]: 0.0001

EPDRAHYNI (modifications not checked)
relative binding ratio [10]: 0.0001
relative binding ratio [11]: 0.0017
relative binding ratio [12]: 0.0031
relative binding ratio [13]: 0.0001
relative binding ratio [14]: 0.0002

EPDRAHYNIV (modifications not checked)
relative binding ratio [10, 19]: 0.0001
relative binding ratio [11, 19]: 0.0001
relative binding ratio [12, 19]: 0.0001
relative binding ratio [13, 19]: 0.0001
relative binding ratio [14, 19]: 0.0001

TPTLHEYML (modifications not checked) [HPV16 E7 5 …]
relative binding ratio [10, 19]: 0.0001
relative binding ratio [11, 19]: 0.0001
relative binding ratio [12, 19]: 0.0001
relative binding ratio [13, 19]: 0.11
relative binding ratio [14, 19]: 0.0002

SPLGERLEV (modifications not checked) [HPV18 E1 97 peptide …]
binding affinity ratio (IC50 of standard peptide / IC50 of test peptide) [10]: 0.0003
binding affinity ratio (IC50 of standard peptide / IC50 of test peptide) [11]: 0.0002
binding affinity ratio (IC50 of standard peptide / IC50 of test peptide) [12]: 0.0002
binding affinity ratio (IC50 of standard peptide / IC50 of test peptide) [13]: 0.13
binding affinity ratio (IC50 of standard peptide / IC50 of test peptide) [14]: 0.0011

SPRLQEISL (modifications not checked) [HPV18 E1 110 peptide …]
binding affinity ratio (IC50 of standard peptide / IC50 of test peptide) [10]: 0.0008
binding affinity ratio (IC50 of standard peptide / IC50 of test peptide) [11]: 0.0002
binding affinity ratio (IC50 of standard peptide / IC50 of test peptide) [12]: 0.0005
binding affinity ratio (IC50 of standard peptide / IC50 of test peptide) [13]: 0.62

GTTLEQQY (modifications not checked) [GTTLEQQY (HPV16 E6, position 92, 8 amino acids)]
relative binding ratio (IC50 of standard peptide / IC50 of test peptide) [15]: 0.0006

VCDKCLKFY (modifications not checked) [… (HPV16 E6, position 69, 9 amino acids)]
relative binding ratio (IC50 of standard peptide / IC50 of test peptide) [16]: 0.0002
relative binding ratio (IC50 of standard peptide / IC50 of test peptide) [15]: 0.0017

DTPTLHEY (modifications not checked) [DTPTLHEY (HPV16 E7, position 4, 8 amino acids)]
relative binding ratio (IC50 of standard peptide / IC50 of test peptide) [15]: 0.0002

ETTDLYCY (modifications not checked) [ETTDLYCY (HPV16 E7, position 18, 8 amino acids)]
relative binding ratio (IC50 of standard peptide / IC50 of test peptide) [16, 19]: 0.0001
relative binding ratio (IC50 of standard peptide / IC50 of test peptide) [15, 19]: 0.078

HGDTPTLHEY (modifications not checked) [… (HPV16 E7, position 2, 10 amino acids)]
relative binding ratio (IC50 of standard peptide / IC50 of test peptide) [16, 19]: 0.0001
relative binding ratio (IC50 of standard peptide / IC50 of test peptide) [15, 19]: 0.003

QAEPDRAHY (modifications not checked) [… (HPV16 E7, position 44, 9 amino acids)]
relative binding ratio (IC50 of standard peptide / IC50 of test peptide) [16]: 0.0002
relative binding ratio (IC50 of standard peptide / IC50 of test peptide) [15]: 0.021

QPETTDLY (modifications not checked) [QPETTDLY (HPV16 E7, position 16, 8 amino acids)]
relative binding ratio (IC50 of standard peptide / IC50 of test peptide) [15]: 0.001

CMCCKCEARIK (modifications not checked) [HPV18 E7 63-73 peptide …]
relative binding ratio (IC50 of standard peptide / IC50 of test peptide) [17]: 0.0002
relative binding ratio (IC50 of standard peptide / IC50 of test peptide) [6]: 0.0014

VMFLRYQGV (modifications not checked) [HPV16 E1 peptide … (position 443, 9 amino acids)]
relative binding ratio (IC50 of standard peptide / IC50 of test peptide) (ratio to standard peptide) [3]: 0.014

YLVSPLSDI (modifications not checked) [HPV16 E1 peptide … (position 90, 9 amino acids)]
relative binding ratio (IC50 of standard peptide / IC50 of test peptide) (ratio to standard peptide) [3]: 0.02

LTEVFEFAFK (modifications not checked) [HPV18 E6 41-50 peptide …]
relative binding ratio (IC50 of standard peptide / IC50 of test peptide) [18]: 0.036

NTGLYNLLIR (modifications not checked) [HPV18 E6 95-104 peptide …]
relative binding ratio (IC50 of standard peptide / IC50 of test peptide) [18]: 0.0013

PLNPAEKLR (modifications not checked) [HPV18 E6 111-119 peptide …]
relative binding ratio (IC50 of standard peptide / IC50 of test peptide) [17]: 0.0005

RARQERLQR (modifications not checked) [HPV18 E6 144-152 peptide …]
relative binding ratio (IC50 of standard peptide / IC50 of test peptide) [17]: 0.0002

RFEDPTRRPY (modifications not checked) [HPV18 E6 3-12 peptide …]
relative binding ratio (IC50 of standard peptide / IC50 of test peptide) [17]: 0.0002

RFHNIAGHY (modifications not checked) [HPV18 E6 126-134 peptide …]
relative binding ratio (IC50 of standard peptide / IC50 of test peptide) [18]: 0.0002

RFHNIAGHYR (modifications not checked) [HPV18 E6 126-135 peptide …]
relative binding ratio (IC50 of standard peptide / IC50 of test peptide) [18]: 0.0057

SIPHAACHK (modifications not checked) [HPV18 E6 59-67 peptide …]
relative binding ratio (IC50 of standard peptide / IC50 of test peptide) [17]: 0.12

SVYGDTLEK (modifications not checked) [HPV18 E6 84-92 peptide …]
relative binding ratio (IC50 of standard peptide / IC50 of test peptide) [18]: 0.23

TGLYNLLIR (modifications not checked) [HPV18 E6 96-104 peptide …]
relative binding ratio (IC50 of standard peptide / IC50 of test peptide) [18]: 0.0002

VVYRDSIPH (modifications not checked) [HPV18 E6 54-62 peptide …]
relative binding ratio (IC50 of standard peptide / IC50 of test peptide) [18]: 0.38
